Data reported in US12491259B2, “Anti-variable MUC1* antibodies and uses thereof” (Minerva Biotechnologies Corporation, priority 2022, dated 2025).

How the values were obtained:
Assay in all cases: xCELLigence real-time killing assay (impedance)
Assay type in all cases: cell-based, human
[1] = test system: T47D wild-type breast cancer cells; conditions: for concentration showing potent / effective / comparable killing: after 120 hours; for ADC concentration at which essentially all the tumor cells were killed: readout 120 hours post ADC addition, DAR: MNC2-MMAE 4.1, MN20A10-MMAE 5.8, MNC2-MMAF 3.7, MN20A10-MMAF 3.8; for concentration at which target cells are effectively killed: within a 40 hour timeframe
Experimental: FIGS. 49A-49J show traces from the real-time killing assays performed on an xCELLigence instrument. In this assay, impedance is measured in real-time. When the adherent cancer cells are killed and come off of the electrode surface, impedance (insulation) decreases. T47D wild-type breast cancer cells were plated onto multi-electrode-well plates at 5,000 cells per well and allowed to adhere and grow for 24 hours before the addition of ADCs. Either MNC2-MMAE, DAR 4.1, MN20A10-MMAE, DAR 5.8, MNC2-MMAF, DAR 3.7, MN20A10-MMAF, DAR 3.8, MNC2-Deruxtecan, DAR 7.2, or MN20A10-Deruxtecan, DAR 4.6, was then added to the cancer cells. […] Taxol and Triton are added as the positive killing control. […] Taxol and Triton are added as the positive killing control. […]
(§1) To assess real-time killing of target cancer cells including breast cancer cells (T47D), non-small cell lung cancer cells (NCI-H1975) and pancreatic cancer cells (HP AF II) assays were performed on an xCELLigence RTCA MP Instrument (Agilent). Target Cancer cells were seeded onto a multi-electrode well plate at a density of 5000 cells/well (100 μL of a 50,000 cells/mL stock) and incubated for 24 hr in a 37° C./5% CO2 incubator. mAb MNC2 ADCs or mAb MN20A10-ADCs were prepared as a 2× solution in corresponding growth media and 100 μL of each concentration was added to target cells. As a positive control (100% cell killing) cells were treated with either 1% triton or 1 μM Taxol instead of ADC. After 40-120 hours incubation in a 37° C./5% CO2 incubator cell killing was assessed. In this assay, impedance is measured in real-time. When the adherent cancer cells are killed and come off the electrode surface, impedance (insulation) decreases.
(§2) MNC2-ADCs and MN20A10-ADCs were also assayed for their ability to kill both low and high MUC1* expressing cells by monitoring killing in real-time using an xCELLigence instrument. In the xCelligence system, target cancer cells, which are adherent, are plated onto electrode array 96-well plates. Adherent cells insulate the electrode and increase the impedance. The number of adherent cancer cells is directly proportional to impedance. […] Therefore, increasing impedance reflects the growth of the cancer cells and decreasing impedance reflects the killing of the cancer cells.
Breast cancer cell line T47D-wt expresses MUC1* at low to low-medium levels. Pancreatic cancer cell line HPAF II-wt expresses even lower levels of MUC1* and lung cancer cell line NCI-H1975 express still lower levels of MUC1*.

[2] = test system: NCI-H1975 lung cancer cells; conditions: for time course of effect: 40 hours versus 120 hours; for ADC concentration at which essentially all the lung tumor cells were killed: readout 40 hours; for ADC concentration at which essentially all the tumor cells were killed: readout 120 hours post ADC addition
Experimental: FIG. 51A-51I show traces from the real-time killing assays performed on an xCELLigence instrument. In this assay, impedance is measured in real-time. When the adherent cancer cells are killed and come off of the electrode surface, impedance (insulation) decreases. NCI-H1975 lung cancer cells were plated onto multi-electrode-well plates at 5,000 cells per well and allowed to adhere and grow for 24 hours before the addition of ADCs. Either MNC2-MMAE, DAR 4.1, MN20A10-MMAE, DAR 5.8, MNC2-MMAF, DAR 3.7, MN20A10-MMAF, DAR 3.8, MNC2-Deruxtecan, DAR 7.2, or MN20A10-Deruxtecan, DAR 4.6, was then added to the cancer cells. […] Taxol and Triton are added as the positive killing control. […].
FIGS. 56A-56D show traces from the real-time killing assays performed on an xCELLigence instrument. In this assay, impedance is measured in real-time. When the adherent cancer cells are killed and come off of the electrode surface, impedance (insulation) decreases. Here NCI-H1975 non-small cell lung cancer cells that express very low levels of MUC1*, were plated onto multi-electrode 96-well plates at 5,000 cells per well and allowed to adhere and grow for 24 hours before the addition of ADCs. Either MNC2-Exatecan, DAR 8.2, MNC2-Deruxtecan, DAR 4.0, MNC2-MMAE, DAR 4.1, or free Exatecan at 50 μM, was then added to the cancer cells.
as §1, §2

[3] = test system: HPAF II-MUC1* pancreatic cancer cells; conditions: readout 120 hours post ADC addition
Experimental: FIGS. 53A-53I show traces from the real-time killing assays performed on an xCELLigence instrument. In this assay, impedance is measured in real-time. When the adherent cancer cells are killed and come off of the electrode surface, impedance (insulation) decreases. HPAF II-MUC1* pancreatic cancer cells, engineered to express more MUC1*, were plated onto multi-electrode-well plates at 5,000 cells per well and allowed to adhere and grow for 24 hours before the addition of ADCs. Either MNC2-MMAE, DAR 4.1, MN20A10-MMAE, DAR 5.8, MNC2-MMAF, DAR 3.7, MN20A10-MMAF, DAR 3.8, MNC2-Deruxtecan, DAR 7.2, or MN20A10-Deruxtecan, DAR 4.6, was then added to the cancer cells. […] Taxol and Triton are added as the positive killing control. […] Taxol and Triton are added as the positive killing control. […] As indicated, essentially all the pancreatic tumor cells were killed at an MNC2-MMAE concentration of 56 nM. […] As indicated, essentially all the tumor cells were killed at an MNC2-MMAF concentration of 56 nM. […] As indicated, essentially all the tumor cells were killed at an MN20A10-MMAE concentration of 56 nM-19 nM. […] As indicated, essentially all the tumor cells were killed at an MN20A10-MMAF concentration of 56 nM.
as §1, with “When the adherent cancer cells are killed and come off the electrode surface, impedance (insulation) decreases.” left out

| Molecule | concentration showing potent / effective / comparable killing [1] [nM] | ADC concentration at which essentially all the tumor cells were killed [1] [nM] | concentration at which target cells are effectively killed [1] [nM] | time course of effect [2] | ADC concentration at which essentially all the lung tumor cells were killed [2] [nM] | ADC concentration at which essentially all the tumor cells were killed [2] [nM] | ADC concentration at which essentially all (nearly all, near total) tumor cells were killed [3] [nM] | concentration reaching approximately the same level of killing as MNC2-MMAE or -MMAF ([1]; by 100 hours, DAR 7.2) [nM] |
| --- | --- | --- | --- | --- | --- | --- | --- | --- |
| MNC2-MMAF (conjugate) VH: EVQLVESGGGLVKPGGSLRLSCAASGFTFSGYAMSWVRQAPGKGLEWVSTISSGGTYIYYPDSVKGRFTISRDNAKNSLYLQMNSLRAEDTAVYYCARLGGDNYYEYFDVWGKGTTVTVSS VL: DIVLTQSPASLAVSPGQRATITCRASKSVSTSGYSYMHWYQQKPGQPPKLLIYLASNLESGVPARFSGSGSGTDFTLTINPVEANDTANYYCQHSRELPFTFGGGTKVEIKRT | 167 | 167 | 500 | stasis at 40 hours, but killing at 120 hours | 167 | 56 | 56 |  |
| MN20A10-MMAF (conjugate) VH: QVQLVESGGGLVKPGGSLRLSCAASGFTFSTYAMSWIRQAPGKGLEWVASIGRAGSTYYSDSVKGRFTISRDNAKNSLYLQMNSLRAEDTAVYYCARGPIYNDYDEFAYWGQGTLVTVSS VL: EIVLTQSPATLSLSPGERATLSCKSSQSVLYSSNQKNYLAWYQQKPGQAPRLLIYWASTRESGIPARFSGSGSGTDFTLTISSLEPEDFAVYYCHQYLSSLTFGGGTKVEIKR | 167 | 167 | 500 | stasis at 40 hours, but killing at 120 hours | 167 | 56 | 56 |  |
| MNC2-Deruxtecan (conjugate) VH: EVQLVESGGGLVKPGGSLRLSCAASGFTFSGYAMSWVRQAPGKGLEWVSTISSGGTYIYYPDSVKGRFTISRDNAKNSLYLQMNSLRAEDTAVYYCARLGGDNYYEYFDVWGKGTTVTVSS VL: DIVLTQSPASLAVSPGQRATITCRASKSVSTSGYSYMHWYQQKPGQPPKLLIYLASNLESGVPARFSGSGSGTDFTLTINPVEANDTANYYCQHSRELPFTFGGGTKVEIKRT | 167 |  |  | stasis at 40 hours, but killing at 120 hours |  |  | 167 | 167 |
